# Data as given in PMC8412950.
# Molecular target: NRC3 NB-ARC domain (NRC3^NB-ARC, Val-152 to Ser-507) (Nicotiana benthamiana)
# Assay: SEC
substance,measurement,value
"Recombinant SS15 protein (Ser-25 to Ile-246, lacking signal peptide) (domain or fragment)",stoichiometry N,1
